Reference: patent publication US20200262877A1, “ION CHANNEL-BINDING PEPTIDES AND METHODS OF USE THEREOF” (priority 2017, published 2020)

How the values were obtained:
[1] = biological target: T1, α3β4 (Homo sapiens, UniProt P30926+P32297); assay: Ion channel panel (IonWorks Barracuda): α3β4; type: cell-based; conditions: 100% = no change, <100% = inhibition
T1 construct: host or cells: HEK293 or CHO
How it was run: (§1)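 Peptides were tested in duplicate at final 20 μM and 200 nM, with concentration set by amino acid analysis, in HEPES-buffered saline. They were applied for at least 5 min to HEK293 or CHO cells transfected with each channel. Currents were expressed as % inhibition, 1-(Ipeptide/Icontrol)×100, or % activation, Ipeptide/Icontrol×100, against a channel-matched reference compound.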

[2] = biological target: T2, Nav1.7 (Homo sapiens, UniProt Q15858); assay: cell-based; type: cell-based; conditions: 100% = no change; for Activity of Nav1.7 with peptide, expressed as a percentage of the reference compound: peptide at 0.2 μM; for Activity of Nav1.7 with peptide (percentage of the reference compound): peptide at 20 μM
T2 construct: host or cells: HEK293 or CHO
T2 sequence (Q15858 whole entry): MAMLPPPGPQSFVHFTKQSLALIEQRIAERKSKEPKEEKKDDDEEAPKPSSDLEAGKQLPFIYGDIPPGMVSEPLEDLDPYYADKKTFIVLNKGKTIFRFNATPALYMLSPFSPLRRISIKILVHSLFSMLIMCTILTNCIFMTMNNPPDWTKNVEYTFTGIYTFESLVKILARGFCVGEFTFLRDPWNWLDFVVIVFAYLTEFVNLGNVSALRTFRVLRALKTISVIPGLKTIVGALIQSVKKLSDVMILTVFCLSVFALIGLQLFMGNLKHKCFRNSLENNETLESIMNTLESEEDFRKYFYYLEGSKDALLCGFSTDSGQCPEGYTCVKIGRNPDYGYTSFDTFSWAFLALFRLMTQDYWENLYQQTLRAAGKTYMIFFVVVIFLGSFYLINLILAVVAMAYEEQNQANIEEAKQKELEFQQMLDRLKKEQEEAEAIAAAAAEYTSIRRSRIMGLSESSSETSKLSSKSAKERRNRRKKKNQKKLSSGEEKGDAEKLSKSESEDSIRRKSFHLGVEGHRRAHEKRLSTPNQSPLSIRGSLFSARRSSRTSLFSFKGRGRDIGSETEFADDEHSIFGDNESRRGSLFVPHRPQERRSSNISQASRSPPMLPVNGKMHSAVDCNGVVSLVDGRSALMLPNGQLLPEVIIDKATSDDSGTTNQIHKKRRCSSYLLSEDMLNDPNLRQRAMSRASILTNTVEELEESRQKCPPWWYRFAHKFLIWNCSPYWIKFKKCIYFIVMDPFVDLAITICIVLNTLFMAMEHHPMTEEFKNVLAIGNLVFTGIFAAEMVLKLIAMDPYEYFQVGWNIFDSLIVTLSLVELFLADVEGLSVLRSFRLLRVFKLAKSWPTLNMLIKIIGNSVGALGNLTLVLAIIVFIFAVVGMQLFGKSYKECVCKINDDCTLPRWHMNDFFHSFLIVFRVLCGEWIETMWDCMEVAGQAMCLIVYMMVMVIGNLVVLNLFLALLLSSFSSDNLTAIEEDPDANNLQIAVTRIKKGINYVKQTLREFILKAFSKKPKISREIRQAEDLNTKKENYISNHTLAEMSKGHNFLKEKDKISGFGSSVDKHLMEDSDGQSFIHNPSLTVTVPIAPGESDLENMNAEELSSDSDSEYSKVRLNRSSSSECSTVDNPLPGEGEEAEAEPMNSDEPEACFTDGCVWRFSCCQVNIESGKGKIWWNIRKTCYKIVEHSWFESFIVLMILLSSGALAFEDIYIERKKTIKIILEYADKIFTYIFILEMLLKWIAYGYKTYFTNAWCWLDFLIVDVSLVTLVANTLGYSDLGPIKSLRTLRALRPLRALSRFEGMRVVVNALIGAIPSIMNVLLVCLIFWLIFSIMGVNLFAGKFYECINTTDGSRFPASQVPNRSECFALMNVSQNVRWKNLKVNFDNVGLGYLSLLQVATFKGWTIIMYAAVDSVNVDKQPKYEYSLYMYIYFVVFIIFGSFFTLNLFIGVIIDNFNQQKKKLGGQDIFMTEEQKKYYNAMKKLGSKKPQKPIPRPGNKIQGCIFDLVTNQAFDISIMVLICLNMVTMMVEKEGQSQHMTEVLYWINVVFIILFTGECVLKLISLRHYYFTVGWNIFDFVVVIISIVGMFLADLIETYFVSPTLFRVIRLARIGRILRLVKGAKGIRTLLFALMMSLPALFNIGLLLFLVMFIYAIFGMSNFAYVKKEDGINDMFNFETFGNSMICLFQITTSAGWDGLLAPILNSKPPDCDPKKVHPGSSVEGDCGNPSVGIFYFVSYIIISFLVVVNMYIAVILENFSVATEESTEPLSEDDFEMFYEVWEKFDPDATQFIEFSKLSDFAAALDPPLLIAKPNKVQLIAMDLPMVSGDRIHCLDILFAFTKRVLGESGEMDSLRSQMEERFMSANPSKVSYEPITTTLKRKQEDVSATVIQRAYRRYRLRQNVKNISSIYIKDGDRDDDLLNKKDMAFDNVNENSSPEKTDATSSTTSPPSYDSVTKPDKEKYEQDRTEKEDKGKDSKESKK

[3] = biological target: T3, α4β2 (Homo sapiens, UniProt P17787+P43681); assay: Ion channel panel (IonWorks Barracuda): α4β2; type: cell-based; conditions: 100% = no change, <100% = inhibition
T3 construct: host or cells: HEK293 or CHO
How it was run: as §1

[4] = biological target: T4, TRPA1 (Homo sapiens, UniProt O75762); assay: Ion channel panel (IonWorks Barracuda): TRPA1; type: cell-based; conditions: 100% = no change, <100% = inhibition
T4 construct: host or cells: HEK293 or CHO
How it was run: as §1

[5] = biological target: T5, Kv1.3 (Homo sapiens, UniProt P22001); assay: cell-based; type: cell-based; conditions: 100% = no change, <100% = inhibition
T5 construct: host or cells: HEK293 or CHO
How it was run: as §1

[6] = biological target: T6, Kv1.1 (Homo sapiens, UniProt Q09470); assay: cell-based; type: cell-based; conditions: 100% = no change, <100% = inhibition
T6 construct: host or cells: HEK293 or CHO
How it was run: as §1

[7] = biological target: T7, Kv1.2 (Homo sapiens, UniProt P16389); assay: cell-based; type: cell-based; conditions: 100% = no change, <100% = inhibition
T7 construct: host or cells: HEK293 or CHO
How it was run: as §1

[8] = biological target: T8, TRPV1 (Homo sapiens, UniProt Q8NER1); assay: Ion channel panel (IonWorks Barracuda): TRPV1; type: cell-based; conditions: 100% = no change, <100% = inhibition
T8 construct: host or cells: HEK293 or CHO
How it was run: as §1

[9] = biological target: T9, NR2B (Homo sapiens, UniProt Q13224); assay: Ion channel panel (IonWorks Barracuda): NR2B; type: cell-based; conditions: 100% = no change, <100% = inhibition
T9 construct: host or cells: HEK293 or CHO
How it was run: as §1

[10] = biological target: T10, NR2A (Homo sapiens, UniProt Q12879); assay: Ion channel panel (IonWorks Barracuda): NR2A; type: cell-based; conditions: 100% = no change, <100% = inhibition
T10 construct: host or cells: HEK293 or CHO
How it was run: as §1

[11] = biological target: T11, Cav2.1 (Homo sapiens, UniProt O00555); assay: cell-based; conditions: 100% = no change, <100% = inhibition
T11 construct: host or cells: HEK293 or CHO
How it was run: as §1

[12] = biological target: T12, Kv2.1 (Homo sapiens, UniProt Q14721); assay: cell-based; conditions: 100% = no change, <100% = inhibition
T12 construct: host or cells: HEK293 or CHO
How it was run: as §1

[13] = biological target: T13, Cav2.2 (Homo sapiens, UniProt Q00975); assay: cell-based; conditions: 100% = no change, <100% = inhibition
T13 construct: host or cells: HEK293 or CHO
How it was run: as §1

[14] = biological target: T14, Kir2.1 (Homo sapiens, UniProt P63252); assay: Ion channel panel (IonWorks Barracuda): Kir2.1; type: cell-based; conditions: 100% = no change, <100% = inhibition
T14 construct: host or cells: HEK293 or CHO
How it was run: as §1

[15] = biological target: Nav1.5 (Homo sapiens, UniProt Q14524); assay: in vitro; conditions: 100% = no change; for Activity of Nav1.5 with peptide, expressed as a percentage of the reference compound: peptide at 0.2 μM; for Activity of Nav1.5 with peptide (percentage of the reference compound): peptide at 20 μM
Chain of Nav1.5 (Q14524 whole entry): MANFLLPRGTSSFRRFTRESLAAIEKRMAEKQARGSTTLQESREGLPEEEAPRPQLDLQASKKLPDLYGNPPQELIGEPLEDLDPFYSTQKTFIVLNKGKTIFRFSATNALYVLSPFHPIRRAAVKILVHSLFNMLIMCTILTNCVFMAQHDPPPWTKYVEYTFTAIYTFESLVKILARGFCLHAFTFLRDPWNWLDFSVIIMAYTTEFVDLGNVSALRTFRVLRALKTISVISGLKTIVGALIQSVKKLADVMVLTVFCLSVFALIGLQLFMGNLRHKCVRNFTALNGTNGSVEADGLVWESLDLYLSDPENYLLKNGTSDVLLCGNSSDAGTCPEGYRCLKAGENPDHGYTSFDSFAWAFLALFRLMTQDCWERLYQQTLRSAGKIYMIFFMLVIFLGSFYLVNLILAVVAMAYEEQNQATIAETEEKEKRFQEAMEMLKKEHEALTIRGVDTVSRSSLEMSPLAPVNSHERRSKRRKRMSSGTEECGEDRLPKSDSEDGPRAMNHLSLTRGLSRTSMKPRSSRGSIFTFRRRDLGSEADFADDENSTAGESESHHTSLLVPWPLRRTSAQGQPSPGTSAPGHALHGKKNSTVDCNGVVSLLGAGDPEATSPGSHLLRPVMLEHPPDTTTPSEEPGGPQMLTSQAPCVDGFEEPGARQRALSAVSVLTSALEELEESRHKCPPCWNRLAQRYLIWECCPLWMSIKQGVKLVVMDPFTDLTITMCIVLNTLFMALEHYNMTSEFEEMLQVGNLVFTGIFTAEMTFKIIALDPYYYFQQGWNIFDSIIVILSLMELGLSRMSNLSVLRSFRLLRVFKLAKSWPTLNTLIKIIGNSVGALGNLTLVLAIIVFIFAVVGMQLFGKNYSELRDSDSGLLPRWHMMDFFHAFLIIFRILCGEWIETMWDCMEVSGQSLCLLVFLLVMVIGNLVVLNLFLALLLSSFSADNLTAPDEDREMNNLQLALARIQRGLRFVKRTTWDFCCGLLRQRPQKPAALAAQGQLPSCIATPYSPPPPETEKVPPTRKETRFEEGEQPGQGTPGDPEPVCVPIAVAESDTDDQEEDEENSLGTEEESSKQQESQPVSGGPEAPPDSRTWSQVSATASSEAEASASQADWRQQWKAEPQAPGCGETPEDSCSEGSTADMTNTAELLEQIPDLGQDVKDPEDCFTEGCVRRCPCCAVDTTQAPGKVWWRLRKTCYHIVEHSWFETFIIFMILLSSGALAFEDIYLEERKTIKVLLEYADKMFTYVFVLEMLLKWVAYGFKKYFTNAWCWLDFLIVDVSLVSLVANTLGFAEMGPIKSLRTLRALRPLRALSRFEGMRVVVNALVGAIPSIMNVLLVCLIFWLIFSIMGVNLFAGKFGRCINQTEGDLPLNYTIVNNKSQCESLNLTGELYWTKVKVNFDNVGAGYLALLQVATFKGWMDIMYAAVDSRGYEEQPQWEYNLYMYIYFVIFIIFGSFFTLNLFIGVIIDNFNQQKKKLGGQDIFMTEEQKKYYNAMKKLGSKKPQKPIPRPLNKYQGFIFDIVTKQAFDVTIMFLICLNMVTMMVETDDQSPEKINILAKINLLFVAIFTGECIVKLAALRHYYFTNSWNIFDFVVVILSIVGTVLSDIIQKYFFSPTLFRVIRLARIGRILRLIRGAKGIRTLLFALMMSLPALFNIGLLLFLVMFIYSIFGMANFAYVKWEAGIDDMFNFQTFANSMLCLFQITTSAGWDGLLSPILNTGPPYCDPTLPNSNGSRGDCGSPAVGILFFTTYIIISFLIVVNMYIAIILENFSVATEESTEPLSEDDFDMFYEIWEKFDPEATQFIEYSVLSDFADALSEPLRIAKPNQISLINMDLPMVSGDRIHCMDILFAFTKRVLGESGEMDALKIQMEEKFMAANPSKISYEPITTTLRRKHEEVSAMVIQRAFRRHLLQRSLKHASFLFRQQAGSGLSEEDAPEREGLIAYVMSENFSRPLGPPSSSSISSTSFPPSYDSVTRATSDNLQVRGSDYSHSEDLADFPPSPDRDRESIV
How it was run: as §1

[16] = biological target: hERG (Homo sapiens, UniProt Q12809); assay: in vitro; conditions: 100% = no change, <100% = inhibition
Chain of hERG (Q12809 whole entry): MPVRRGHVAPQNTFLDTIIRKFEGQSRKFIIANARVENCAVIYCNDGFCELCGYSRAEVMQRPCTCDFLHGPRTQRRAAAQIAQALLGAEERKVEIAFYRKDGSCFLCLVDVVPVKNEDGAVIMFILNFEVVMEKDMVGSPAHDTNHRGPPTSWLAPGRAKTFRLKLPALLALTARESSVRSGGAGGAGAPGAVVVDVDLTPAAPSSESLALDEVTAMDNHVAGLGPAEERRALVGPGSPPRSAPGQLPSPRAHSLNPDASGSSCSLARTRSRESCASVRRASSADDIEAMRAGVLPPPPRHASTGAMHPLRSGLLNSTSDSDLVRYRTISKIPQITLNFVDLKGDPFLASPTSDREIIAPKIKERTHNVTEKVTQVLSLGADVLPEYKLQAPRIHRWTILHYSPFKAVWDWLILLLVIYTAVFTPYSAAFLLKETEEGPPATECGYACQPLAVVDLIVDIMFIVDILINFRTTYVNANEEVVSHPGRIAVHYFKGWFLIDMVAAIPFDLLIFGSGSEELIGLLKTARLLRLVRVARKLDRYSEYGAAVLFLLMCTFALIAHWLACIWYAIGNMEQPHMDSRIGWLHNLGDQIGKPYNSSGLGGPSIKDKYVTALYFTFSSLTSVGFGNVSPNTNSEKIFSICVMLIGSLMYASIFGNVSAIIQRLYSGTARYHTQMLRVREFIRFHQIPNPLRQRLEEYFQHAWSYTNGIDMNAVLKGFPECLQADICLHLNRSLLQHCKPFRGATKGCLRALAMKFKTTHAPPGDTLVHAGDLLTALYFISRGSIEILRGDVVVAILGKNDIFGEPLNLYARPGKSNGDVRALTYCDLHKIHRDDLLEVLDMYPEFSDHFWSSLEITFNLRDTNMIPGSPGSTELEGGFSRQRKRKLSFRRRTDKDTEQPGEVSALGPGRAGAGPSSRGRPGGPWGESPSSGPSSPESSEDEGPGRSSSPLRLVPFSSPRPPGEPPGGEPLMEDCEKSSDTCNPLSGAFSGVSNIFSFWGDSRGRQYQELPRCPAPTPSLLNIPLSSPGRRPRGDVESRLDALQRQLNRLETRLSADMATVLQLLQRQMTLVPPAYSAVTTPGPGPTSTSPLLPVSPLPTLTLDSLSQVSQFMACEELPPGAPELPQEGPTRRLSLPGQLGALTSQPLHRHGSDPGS
How it was run: as §1

[17] = system: GABA; assay: Ion channel panel (IonWorks Barracuda): GABA; type: cell-based; conditions: 100% = no change, <100% = inhibition
How it was run: as §1

[18] = biological target: T15, 5HT3a (Homo sapiens, UniProt P46098); assay: Ion channel panel (IonWorks Barracuda): 5HT3a; type: cell-based
T15 construct: host or cells: HEK293 or CHO
T15 sequence (P46098 whole entry, looked up): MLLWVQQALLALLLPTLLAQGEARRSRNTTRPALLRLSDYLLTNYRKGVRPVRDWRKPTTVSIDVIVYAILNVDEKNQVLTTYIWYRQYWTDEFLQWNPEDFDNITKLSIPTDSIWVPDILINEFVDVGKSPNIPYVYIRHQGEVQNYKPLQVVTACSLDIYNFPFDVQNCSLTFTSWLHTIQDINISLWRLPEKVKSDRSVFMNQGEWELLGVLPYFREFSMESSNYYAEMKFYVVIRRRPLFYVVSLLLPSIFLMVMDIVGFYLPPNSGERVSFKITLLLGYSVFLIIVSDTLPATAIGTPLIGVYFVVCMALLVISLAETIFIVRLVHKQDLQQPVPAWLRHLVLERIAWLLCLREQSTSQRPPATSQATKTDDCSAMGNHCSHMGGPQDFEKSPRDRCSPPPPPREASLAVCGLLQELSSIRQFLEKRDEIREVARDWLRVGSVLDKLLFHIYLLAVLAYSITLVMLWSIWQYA
How it was run: as §1

[19] = first of two Nav1.7 columns (probably TP1)
[20] = second of two Nav1.7 columns (probably TP2)
[21] = first of two Nav1.5 columns (probably TP1)
[22] = second of two Nav1.5 columns (probably TP2)

17 (GSRPTDIKCSASYQCFPVCKSRFGKTNGRCVNGLCDCF) [compound 17]
Activity of a3b4 with peptide, expressed as a percentage of the reference compound ([1]; peptide at 0.2 μM): 98%
Activity of a3b4 with peptide (percentage of the reference compound) ([1]; peptide at 20 μM): 97%
Activity of Nav1.7 with peptide, expressed as a percentage of the reference compound [2, 19]: 66%
Activity of Nav1.7 with peptide, expressed as a percentage of the reference compound [2, 20]: 61%
Activity of Nav1.7 with peptide (percentage of the reference compound) [2, 19]: 75%
Activity of Nav1.7 with peptide (percentage of the reference compound) [2, 20]: 60%
Activity of a4b2 with peptide, expressed as a percentage of the reference compound ([3]; peptide at 0.2 μM): 93%
Activity of a4b2 with peptide (percentage of the reference compound) ([3]; peptide at 20 μM): 78%
Activity of TRPA1 with peptide, expressed as a percentage of the reference compound ([4]; peptide at 0.2 μM): 176%
Activity of TRPA1 with peptide (percentage of the reference compound) ([4]; peptide at 20 μM): 129%
Activity of Kv1.3 with peptide, expressed as a percentage of the reference compound ([5]; peptide at 0.2 μM): 96%
Activity of Kv1.3 with peptide (percentage of the reference compound) ([5]; peptide at 20 μM): 6%
Activity of Kv1.1 with peptide, expressed as a percentage of the reference compound ([6]; peptide at 0.2 μM): 106%
Activity of Kv1.1 with peptide (percentage of the reference compound) ([6]; peptide at 20 μM): 89%
Activity of Kv1.2 with peptide, expressed as a percentage of the reference compound ([7]; peptide at 0.2 μM): 97%
Activity of Kv1.2 with peptide (percentage of the reference compound) ([7]; peptide at 20 μM): 47%
Activity of TRPV1 with peptide, expressed as a percentage of the reference compound ([8]; peptide at 0.2 μM): 99%
Activity of TRPV1 with peptide (percentage of the reference compound) ([8]; peptide at 20 μM): 82%
Activity of NR2B with peptide, expressed as a percentage of the reference compound ([9]; peptide at 0.2 μM): 90%
Activity of NR2B with peptide (percentage of the reference compound) ([9]; peptide at 20 μM): 77%
Activity of NR2A with peptide, expressed as a percentage of the reference compound ([10]; peptide at 0.2 μM): 83%
Activity of NR2A with peptide (percentage of the reference compound) ([10]; peptide at 20 μM): 96%
Activity of Cav2.1 with peptide, expressed as a percentage of the reference compound ([11]; peptide at 0.2 μM): 107%
Activity of Cav2.1 with peptide (percentage of the reference compound) ([11]; peptide at 20 μM): 90%
Activity of Kv2.1 with peptide, expressed as a percentage of the reference compound ([12]; peptide at 0.2 μM): 88%
Activity of Kv2.1 with peptide (percentage of the reference compound) ([12]; peptide at 20 μM): 93%
Activity of Cav2.2 with peptide, expressed as a percentage of the reference compound ([13]; peptide at 0.2 μM): 117%
Activity of Cav2.2 with peptide (percentage of the reference compound) ([13]; peptide at 20 μM): 100%
Activity of Kir2.1 with peptide, expressed as a percentage of the reference compound ([14]; peptide at 0.2 μM): 103%
Activity of Kir2.1 with peptide (percentage of the reference compound) ([14]; peptide at 20 μM): 84%
Activity of Nav1.5 with peptide, expressed as a percentage of the reference compound [15, 21]: 96%
Activity of Nav1.5 with peptide, expressed as a percentage of the reference compound [15, 22]: 95%
Activity of Nav1.5 with peptide (percentage of the reference compound) [15, 21]: 95%
Activity of Nav1.5 with peptide (percentage of the reference compound) [15, 22]: 94%
Activity of hERG with peptide, expressed as a percentage of the reference compound ([16]; peptide at 0.2 μM): 85%
Activity of hERG with peptide (percentage of the reference compound) ([16]; peptide at 20 μM): 8%
Activity of GABA with peptide, expressed as a percentage of the reference compound ([17]; peptide at 0.2 μM): 97%
Activity of GABA with peptide (percentage of the reference compound) ([17]; peptide at 20 μM): 108%
Activity of 5HT3a with peptide (percentage of the reference compound) [18]: 85%
Activity of 5HT3a with peptide, expressed as a percentage of the reference compound [18]: 81%
